Test results published in paper PMC3079366.
Read-outs that look alike come from different tables or passages of the source.

Measured: localisation_or_trafficking

GluA1: GluA1-4KR (K813, K819, K822, K868 to R) co-transfected with Nedd4-1 in HEK293T
abolishes: ubiquitination at K813 | ubiquitination at K819 | ubiquitination at K822 | ubiquitination at K868
